Test results as given in article PMC5340296.

Target: YFP–CPR5 (translational fusion of the yellow fluorescent protein to CPR5) (Arabidopsis thaliana) (UniProt Q9LV85)
Assay: FRET or BRET

UniProt Q9LV85, sequence (Q9LV85 whole entry, the tested form may be a part): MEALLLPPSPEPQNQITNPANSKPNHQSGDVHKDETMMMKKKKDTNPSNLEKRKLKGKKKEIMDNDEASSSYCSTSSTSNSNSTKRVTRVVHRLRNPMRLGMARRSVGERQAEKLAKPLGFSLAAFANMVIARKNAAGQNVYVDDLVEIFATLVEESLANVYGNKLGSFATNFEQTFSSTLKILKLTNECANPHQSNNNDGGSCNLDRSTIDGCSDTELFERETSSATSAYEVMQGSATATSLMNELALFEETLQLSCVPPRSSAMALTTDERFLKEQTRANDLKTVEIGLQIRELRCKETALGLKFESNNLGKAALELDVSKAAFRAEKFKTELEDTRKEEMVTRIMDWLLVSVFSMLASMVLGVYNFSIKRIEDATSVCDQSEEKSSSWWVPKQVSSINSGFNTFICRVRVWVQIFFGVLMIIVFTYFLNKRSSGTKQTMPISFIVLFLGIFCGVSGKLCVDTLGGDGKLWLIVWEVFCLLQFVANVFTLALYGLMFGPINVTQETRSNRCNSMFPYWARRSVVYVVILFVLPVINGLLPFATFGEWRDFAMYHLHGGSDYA

FRET efficiency: 10%
Substance: CFP–sbZIP60 (cyan fluorescent protein fused to spliced full-length bZIP60) (natural protein)
